Measurements reported in article PMC3008968.

B1: fetuin (fetal calf serum) (natural protein)
chain: IPLDPVAGYKEPACDDPDTEQAALAAVDYINKHLPRGYKHTLNQIDSVKVWPRRPTGEVYDIEIDTLETTCHVLDPTPLANCSVRQQTQHAVEGDCDIHVLKQDGQFSVLFTKCDSSPDSAEDVRKLCPDCPLLAPLNDSRVVHAVEVALATFNAESNGSYLQLVEISRAQFVPLPVSVSVEFAVAATDCIAKEVVDPTKCNLLAEKQYGFCKGSVIQKALGGEDVRVTCTLFQTQPVIPQPQPDGAEAEAPSAVPDAAGPTPSAAGPPVASVVVGPSVVAVPLPLHRAHYDLRHTFSGVASVESSSGEAFHVGKTPIVGQPSIPGGPVRLCPGRIRYFKI
B2: Asialofetuin (natural protein)
chain: B1 chain
modifications: asialo form (asialofetuin)

What was measured:
[1] = biological target: Cephalosporium lectin (Cephalosporium (isolated from the corneal smears of a keratitis patient))
[2] = biological target: Cephalosporium lectin (Cephalosporium (isolated from the corneal smears of a keratitis patient)); test: SEC; gel filtration on a Superdex G-75 column in PBS, calibrated with standard proteins; 57 kDa compared with the 14 kDa subunit mass by SDS-PAGE

Molecule	minimum concentration required to inhibit hemagglutination of trypsinized human erythrocytes by CSL (hapten inhibition, MIC) [1] [μg/50 μl]	stoichiometry N [2]
Mucin (porcine stomach, type III) (natural protein)	0.785	
Cephalosporium lectin (natural protein)		4
B1	6.25	
B2	12.5	
